Assay results reported in the supplement of paper PMC9170038.

Test system: MS2 coat protein
Test: apparent KD of MS2 coat protein; higher = weaker reporter binding
Conditions: Eterna round: R107
Summary of the method: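 The designed RNA switches were transcribed on-chip from Illumina sequencing clusters. In 100 mM Tris-HCl pH 7.5, 80 mM KCl and 4 mM MgCl2, without or with constant ligand, they were titrated with SNAP-549-labelled MS2 coat protein from 0.7 or 1.5 nM to 3 µM in twofold steps. Apparent KD is the per-design median of normalised cluster binding-curve fits.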

[1] = input ligand: theophylline 20 uM
[2] = input ligand: theophylline 2 mM
[3] = input ligand: tryptophan 2.4 mM

Sequence | apparent KD of MS2 coat protein (input ligand: arginine 13.2 mM) | apparent KD of MS2 coat protein (input ligand: none) | apparent KD of MS2 coat protein [1] | apparent KD of MS2 coat protein [2] | apparent KD of MS2 coat protein [3]
GCGUACGAUCGGGAUACCAGACAUUGCCGUUAGGGUGAACUUGAGGAUCACCCAAGUUUUGUCCCUUGGCAGCCCGAUCGUACGC [ETB NP+V+V2 #9 Diff Apt, Same Structure] | 9.92 nM | 10 nM | 19.4 nM | 220 nM | 10.4 nM
AGCAUACAUUCUGAUACCAGAGACAUGAGGAUCACCCAUGUCCGAUCGUCCUGCCUCAGACUCCCUUGGCAGCAGGAUGUGUGCU [Exclusion Theophylline B GF6] | 13.1 nM | – | 17.6 nM | – | 13.8 nM
AGAGCAUUGACGGCCGCCACUCAUGUCACAUGAGGAUCACCCAUGUGAUGGGUGAUAGCCCGGUUGAGGACCGGGUCAAUGCUCA [Omei Tryp SS B v1] | 18.4 nM | – | 25.3 nM | 20.4 nM | –
UACAUGAGGAUCACCCAUGUAUGAAUGGAUACCAGCGACAAUGGGCGCCCUUGGCAGCUAGUGGAUGAAGGGUGGGUACAAUACU [Exclusion Theophyline A GF4] | 11.4 nM | 13.4 nM | 17.7 nM | 13.1 nM | 11.4 nM
CACAGUGCGAAUUUGAAAUCGCACGAUCCUCGAGGACCGGUACGGCCGCCACUCGCGCGGGUCGUACAUGAGGAUCACCCAUGUC [Beertele] | 44 nM | – | 600 nM | 907 nM | –
CCGACAUGAGGAUCACCCAUGUGAACAGAUACCAGUCUGGUAAUAGACCCUUGGCAGCUGAACCAGGAAACUAUGGUGAUCCUGG [Theo A SS t3] | 66 nM | 69.8 nM | 89.5 nM | 187 nM | 83.6 nM
GGUGUUACGUCGGCCGCCACUAUACUACAUGAGGAUCACCCAUGUCAUCCCUUCAAUUGGUAGCCUAGGACCGGGACAGAAUUCG [theeternabot_exclusion_MS2_Trp_B_8] | 33.2 nM | – | 55.2 nM | 43.8 nM | –
UGCUACAUGAGGAUCACCCAUGUGGGUGAUACCAGCAUUCGUUUAUGCCCUUGGCAGCGCAGCCGAACCAAUCAUUCGGCAGAAA [Artiusar] | 21 nM | 23 nM | 201 nM | 861 nM | 81 nM
UAUAUAUAUCACGAACUGUGGUGUAUGUCUCGAGGACCGGUACGGCCGCCACUCGCGCGGCCUCACAUGAGGAUCACCCAUGUCC [XTryp A #5] | 66.9 nM | – | 132 nM | 107 nM | –
AACAUGAGGAUCACCCAUGUCGGGCCGGUGCGAGGACCGGUACGGCCGCCACUCGAGACAUGAGGAUCACCCAUGUAGGGCGAGA [Exclusion Tryptophan A GF22] | 44 nM | 79.7 nM | 70.7 nM | 80.7 nM | 115 nM
GAGGAAACUCACAUGAGGAUCACCCAUGUACGAGGACCGGUACGGCCGCCACUCGAAACCAUGGGCGGUAGUACAUGGAAACAUG [Design 2 MOD] | 34 nM | – | 65.8 nM | 75.5 nM | –
GUUUAAAGGUCGGCCGCCACUGUAGGAUGUGUUCUUUCACAUGAGGAUCACCCAUGUUGUUAUUAUAGGACCGGGAUUGUAGGAC [39MS split4] | 22.6 nM | 41.4 nM | 42.3 nM | 35.5 nM | 31.7 nM
AAGUGGCACGGAAGGAGCGAGUUUACCUAAAUAACAUGAGGAUCACCCAUGUAUAAUGGGACUCAGGUAGGUCGCCGUUGUCACU [Same State Arginine B GF 23] | 22.9 nM | 29.3 nM | 43.1 nM | 28.8 nM | 33 nM
GGUGGGACUUGUGAUACCAGCCCAAUUCGAAUCGAAUUGCACAUGAGGAUCACCCAUGUCGGCCCUUGGCAGCAUGAGUAUUUAU [Ricerixe] | 152 nM | – | 149 nM | – | 313 nM
GGGUACAUCACGGCCGCCACUCAUGUAAAUACAUGAGGAUCACCCAUGUCGAUGGAGACAUCGGAGAGGACCGGGUGAUGUACCG | 187 nM | – | 394 nM | 620 nM | –
GCCAGACAUGAGGAUCACCCAUGUAGCGAUACCAGCUCUGUUGUGAGCCCUUGGCAGCGCACUGGCAUCGUAGGUGAUCCAAUAA [(T)''-(Ms2)-(Theo)-(T)'-(M)'_Design1] | 50.4 nM | – | 114 nM | – | 45.9 nM
